Data reported in patent publication US20210388087A1 (Chugai, published 2021).

T1: Human CD3eg linker (human)
T1 construct: Single-chain construct; also called recombinant human CD3
T1 chain: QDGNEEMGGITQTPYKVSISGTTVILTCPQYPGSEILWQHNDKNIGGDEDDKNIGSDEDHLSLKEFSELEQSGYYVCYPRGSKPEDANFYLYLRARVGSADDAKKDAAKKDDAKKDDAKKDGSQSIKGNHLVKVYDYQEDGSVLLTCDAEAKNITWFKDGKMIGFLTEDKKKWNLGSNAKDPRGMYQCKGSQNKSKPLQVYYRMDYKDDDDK


Target: T1, Human CD3eg linker
Assay: SPR; fold vs parent H183/L072

Row | Binder | fold change of affinity [fold]
1 | H183/L072 VL T97E (antibody, name in Kabat numbering, V domains shown) VH: QVQLVESGGGLVQPGRSLRLSCAASGFTFSNAWMHWVRQAPGKGLEWVAQIKDKGNAYAAYYAPSVKGRFTISRDDSKNSIYLQMNSLKTEDTAVYYCHYVHYASASTVLPAFGVDAWGQGTTVTVSS VL: DIVMTQSPLSLPVTPGEPASISCQASQELVHMNRNTYLHWYQQKPGQAPRLLIYKVSNRFPGVPDRFSGSGSGTDFTLKISRVEAEDVGVYYCAQGTSVPFEFGQGTKLEIK | 0.6
2 | H183/L072 VL V27cA (antibody, name in Kabat numbering, V domains shown) VH: QVQLVESGGGLVQPGRSLRLSCAASGFTFSNAWMHWVRQAPGKGLEWVAQIKDKGNAYAAYYAPSVKGRFTISRDDSKNSIYLQMNSLKTEDTAVYYCHYVHYASASTVLPAFGVDAWGQGTTVTVSS VL: DIVMTQSPLSLPVTPGEPASISCQASQELAHMNRNTYLHWYQQKPGQAPRLLIYKVSNRFPGVPDRFSGSGSGTDFTLKISRVEAEDVGVYYCAQGTSVPFTFGQGTKLEIK | 0.4
3 | H183/L072 VL V27cE (antibody, name in Kabat numbering, V domains shown) VH: QVQLVESGGGLVQPGRSLRLSCAASGFTFSNAWMHWVRQAPGKGLEWVAQIKDKGNAYAAYYAPSVKGRFTISRDDSKNSIYLQMNSLKTEDTAVYYCHYVHYASASTVLPAFGVDAWGQGTTVTVSS VL: DIVMTQSPLSLPVTPGEPASISCQASQELEHMNRNTYLHWYQQKPGQAPRLLIYKVSNRFPGVPDRFSGSGSGTDFTLKISRVEAEDVGVYYCAQGTSVPFTFGQGTKLEIK | 0.7
4 | H183/L072 VL T97V (antibody, name in Kabat numbering, V domains shown) VH: QVQLVESGGGLVQPGRSLRLSCAASGFTFSNAWMHWVRQAPGKGLEWVAQIKDKGNAYAAYYAPSVKGRFTISRDDSKNSIYLQMNSLKTEDTAVYYCHYVHYASASTVLPAFGVDAWGQGTTVTVSS VL: DIVMTQSPLSLPVTPGEPASISCQASQELVHMNRNTYLHWYQQKPGQAPRLLIYKVSNRFPGVPDRFSGSGSGTDFTLKISRVEAEDVGVYYCAQGTSVPFVFGQGTKLEIK | 0.6
5 | H183/L072 VL V27cI (antibody, name in Kabat numbering, V domains shown) VH: QVQLVESGGGLVQPGRSLRLSCAASGFTFSNAWMHWVRQAPGKGLEWVAQIKDKGNAYAAYYAPSVKGRFTISRDDSKNSIYLQMNSLKTEDTAVYYCHYVHYASASTVLPAFGVDAWGQGTTVTVSS VL: DIVMTQSPLSLPVTPGEPASISCQASQELIHMNRNTYLHWYQQKPGQAPRLLIYKVSNRFPGVPDRFSGSGSGTDFTLKISRVEAEDVGVYYCAQGTSVPFTFGQGTKLEIK | 1
6 | H183/L072 VL T97H (antibody, name in Kabat numbering, V domains shown) VH: QVQLVESGGGLVQPGRSLRLSCAASGFTFSNAWMHWVRQAPGKGLEWVAQIKDKGNAYAAYYAPSVKGRFTISRDDSKNSIYLQMNSLKTEDTAVYYCHYVHYASASTVLPAFGVDAWGQGTTVTVSS VL: DIVMTQSPLSLPVTPGEPASISCQASQELVHMNRNTYLHWYQQKPGQAPRLLIYKVSNRFPGVPDRFSGSGSGTDFTLKISRVEAEDVGVYYCAQGTSVPFHFGQGTKLEIK | 0.5
7 | H183/L072 VL T97L (antibody, name in Kabat numbering, V domains shown) VH: QVQLVESGGGLVQPGRSLRLSCAASGFTFSNAWMHWVRQAPGKGLEWVAQIKDKGNAYAAYYAPSVKGRFTISRDDSKNSIYLQMNSLKTEDTAVYYCHYVHYASASTVLPAFGVDAWGQGTTVTVSS VL: DIVMTQSPLSLPVTPGEPASISCQASQELVHMNRNTYLHWYQQKPGQAPRLLIYKVSNRFPGVPDRFSGSGSGTDFTLKISRVEAEDVGVYYCAQGTSVPFLFGQGTKLEIK | 0.4
8 | H183/L072 VL T97N (antibody, name in Kabat numbering, V domains shown) VH: QVQLVESGGGLVQPGRSLRLSCAASGFTFSNAWMHWVRQAPGKGLEWVAQIKDKGNAYAAYYAPSVKGRFTISRDDSKNSIYLQMNSLKTEDTAVYYCHYVHYASASTVLPAFGVDAWGQGTTVTVSS VL: DIVMTQSPLSLPVTPGEPASISCQASQELVHMNRNTYLHWYQQKPGQAPRLLIYKVSNRFPGVPDRFSGSGSGTDFTLKISRVEAEDVGVYYCAQGTSVPFNFGQGTKLEIK | 0.5
9 | H183/L072 VL T97M (antibody, name in Kabat numbering, V domains shown) VH: QVQLVESGGGLVQPGRSLRLSCAASGFTFSNAWMHWVRQAPGKGLEWVAQIKDKGNAYAAYYAPSVKGRFTISRDDSKNSIYLQMNSLKTEDTAVYYCHYVHYASASTVLPAFGVDAWGQGTTVTVSS VL: DIVMTQSPLSLPVTPGEPASISCQASQELVHMNRNTYLHWYQQKPGQAPRLLIYKVSNRFPGVPDRFSGSGSGTDFTLKISRVEAEDVGVYYCAQGTSVPFMFGQGTKLEIK | 0.7
10 | H183/L072 VL V27cD (antibody, name in Kabat numbering, V domains shown) VH: QVQLVESGGGLVQPGRSLRLSCAASGFTFSNAWMHWVRQAPGKGLEWVAQIKDKGNAYAAYYAPSVKGRFTISRDDSKNSIYLQMNSLKTEDTAVYYCHYVHYASASTVLPAFGVDAWGQGTTVTVSS VL: DIVMTQSPLSLPVTPGEPASISCQASQELDHMNRNTYLHWYQQKPGQAPRLLIYKVSNRFPGVPDRFSGSGSGTDFTLKISRVEAEDVGVYYCAQGTSVPFTFGQGTKLEIK | 0.1
11 | H183/L072 VL T97F (antibody, name in Kabat numbering, V domains shown) VH: QVQLVESGGGLVQPGRSLRLSCAASGFTFSNAWMHWVRQAPGKGLEWVAQIKDKGNAYAAYYAPSVKGRFTISRDDSKNSIYLQMNSLKTEDTAVYYCHYVHYASASTVLPAFGVDAWGQGTTVTVSS VL: DIVMTQSPLSLPVTPGEPASISCQASQELVHMNRNTYLHWYQQKPGQAPRLLIYKVSNRFPGVPDRFSGSGSGTDFTLKISRVEAEDVGVYYCAQGTSVPFFFGQGTKLEIK | 0.3
12 | H183/L072 VL T97Q (antibody, name in Kabat numbering, V domains shown) VH: QVQLVESGGGLVQPGRSLRLSCAASGFTFSNAWMHWVRQAPGKGLEWVAQIKDKGNAYAAYYAPSVKGRFTISRDDSKNSIYLQMNSLKTEDTAVYYCHYVHYASASTVLPAFGVDAWGQGTTVTVSS VL: DIVMTQSPLSLPVTPGEPASISCQASQELVHMNRNTYLHWYQQKPGQAPRLLIYKVSNRFPGVPDRFSGSGSGTDFTLKISRVEAEDVGVYYCAQGTSVPFQFGQGTKLEIK | 0.5
13 | H183/L072 VL T97G (antibody, name in Kabat numbering, V domains shown) VH: QVQLVESGGGLVQPGRSLRLSCAASGFTFSNAWMHWVRQAPGKGLEWVAQIKDKGNAYAAYYAPSVKGRFTISRDDSKNSIYLQMNSLKTEDTAVYYCHYVHYASASTVLPAFGVDAWGQGTTVTVSS VL: DIVMTQSPLSLPVTPGEPASISCQASQELVHMNRNTYLHWYQQKPGQAPRLLIYKVSNRFPGVPDRFSGSGSGTDFTLKISRVEAEDVGVYYCAQGTSVPFGFGQGTKLEIK | 1
14 | H183/L072 VL T97K (antibody, name in Kabat numbering, V domains shown) VH: QVQLVESGGGLVQPGRSLRLSCAASGFTFSNAWMHWVRQAPGKGLEWVAQIKDKGNAYAAYYAPSVKGRFTISRDDSKNSIYLQMNSLKTEDTAVYYCHYVHYASASTVLPAFGVDAWGQGTTVTVSS VL: DIVMTQSPLSLPVTPGEPASISCQASQELVHMNRNTYLHWYQQKPGQAPRLLIYKVSNRFPGVPDRFSGSGSGTDFTLKISRVEAEDVGVYYCAQGTSVPFKFGQGTKLEIK | 0.6
15 | H183/L072 VL T97R (antibody, name in Kabat numbering, V domains shown) VH: QVQLVESGGGLVQPGRSLRLSCAASGFTFSNAWMHWVRQAPGKGLEWVAQIKDKGNAYAAYYAPSVKGRFTISRDDSKNSIYLQMNSLKTEDTAVYYCHYVHYASASTVLPAFGVDAWGQGTTVTVSS VL: DIVMTQSPLSLPVTPGEPASISCQASQELVHMNRNTYLHWYQQKPGQAPRLLIYKVSNRFPGVPDRFSGSGSGTDFTLKISRVEAEDVGVYYCAQGTSVPFRFGQGTKLEIK | 0.4
16 | H183/L072 VL V27cH (antibody, name in Kabat numbering, V domains shown) VH: QVQLVESGGGLVQPGRSLRLSCAASGFTFSNAWMHWVRQAPGKGLEWVAQIKDKGNAYAAYYAPSVKGRFTISRDDSKNSIYLQMNSLKTEDTAVYYCHYVHYASASTVLPAFGVDAWGQGTTVTVSS VL: DIVMTQSPLSLPVTPGEPASISCQASQELHHMNRNTYLHWYQQKPGQAPRLLIYKVSNRFPGVPDRFSGSGSGTDFTLKISRVEAEDVGVYYCAQGTSVPFTFGQGTKLEIK | 0.3
17 | H183/L072 VL V27cK (antibody, name in Kabat numbering, V domains shown) VH: QVQLVESGGGLVQPGRSLRLSCAASGFTFSNAWMHWVRQAPGKGLEWVAQIKDKGNAYAAYYAPSVKGRFTISRDDSKNSIYLQMNSLKTEDTAVYYCHYVHYASASTVLPAFGVDAWGQGTTVTVSS VL: DIVMTQSPLSLPVTPGEPASISCQASQELKHMNRNTYLHWYQQKPGQAPRLLIYKVSNRFPGVPDRFSGSGSGTDFTLKISRVEAEDVGVYYCAQGTSVPFTFGQGTKLEIK | 1.1
18 | H183/L072 VL T97I (antibody, name in Kabat numbering, V domains shown) VH: QVQLVESGGGLVQPGRSLRLSCAASGFTFSNAWMHWVRQAPGKGLEWVAQIKDKGNAYAAYYAPSVKGRFTISRDDSKNSIYLQMNSLKTEDTAVYYCHYVHYASASTVLPAFGVDAWGQGTTVTVSS VL: DIVMTQSPLSLPVTPGEPASISCQASQELVHMNRNTYLHWYQQKPGQAPRLLIYKVSNRFPGVPDRFSGSGSGTDFTLKISRVEAEDVGVYYCAQGTSVPFIFGQGTKLEIK | 0.5
19 | H183/L072 VL V27cF (antibody, name in Kabat numbering, V domains shown) VH: QVQLVESGGGLVQPGRSLRLSCAASGFTFSNAWMHWVRQAPGKGLEWVAQIKDKGNAYAAYYAPSVKGRFTISRDDSKNSIYLQMNSLKTEDTAVYYCHYVHYASASTVLPAFGVDAWGQGTTVTVSS VL: DIVMTQSPLSLPVTPGEPASISCQASQELFHMNRNTYLHWYQQKPGQAPRLLIYKVSNRFPGVPDRFSGSGSGTDFTLKISRVEAEDVGVYYCAQGTSVPFTFGQGTKLEIK | 0.5
20 | H183/L072 VL T97S (antibody, name in Kabat numbering, V domains shown) VH: QVQLVESGGGLVQPGRSLRLSCAASGFTFSNAWMHWVRQAPGKGLEWVAQIKDKGNAYAAYYAPSVKGRFTISRDDSKNSIYLQMNSLKTEDTAVYYCHYVHYASASTVLPAFGVDAWGQGTTVTVSS VL: DIVMTQSPLSLPVTPGEPASISCQASQELVHMNRNTYLHWYQQKPGQAPRLLIYKVSNRFPGVPDRFSGSGSGTDFTLKISRVEAEDVGVYYCAQGTSVPFSFGQGTKLEIK | 1.1
